Target: CaM-GST on Sepharose beads (UniProt P0DP23)
Test: pull-down

Chain of human Ano1(ac) (natural protein) (Q5XXA6 whole entry): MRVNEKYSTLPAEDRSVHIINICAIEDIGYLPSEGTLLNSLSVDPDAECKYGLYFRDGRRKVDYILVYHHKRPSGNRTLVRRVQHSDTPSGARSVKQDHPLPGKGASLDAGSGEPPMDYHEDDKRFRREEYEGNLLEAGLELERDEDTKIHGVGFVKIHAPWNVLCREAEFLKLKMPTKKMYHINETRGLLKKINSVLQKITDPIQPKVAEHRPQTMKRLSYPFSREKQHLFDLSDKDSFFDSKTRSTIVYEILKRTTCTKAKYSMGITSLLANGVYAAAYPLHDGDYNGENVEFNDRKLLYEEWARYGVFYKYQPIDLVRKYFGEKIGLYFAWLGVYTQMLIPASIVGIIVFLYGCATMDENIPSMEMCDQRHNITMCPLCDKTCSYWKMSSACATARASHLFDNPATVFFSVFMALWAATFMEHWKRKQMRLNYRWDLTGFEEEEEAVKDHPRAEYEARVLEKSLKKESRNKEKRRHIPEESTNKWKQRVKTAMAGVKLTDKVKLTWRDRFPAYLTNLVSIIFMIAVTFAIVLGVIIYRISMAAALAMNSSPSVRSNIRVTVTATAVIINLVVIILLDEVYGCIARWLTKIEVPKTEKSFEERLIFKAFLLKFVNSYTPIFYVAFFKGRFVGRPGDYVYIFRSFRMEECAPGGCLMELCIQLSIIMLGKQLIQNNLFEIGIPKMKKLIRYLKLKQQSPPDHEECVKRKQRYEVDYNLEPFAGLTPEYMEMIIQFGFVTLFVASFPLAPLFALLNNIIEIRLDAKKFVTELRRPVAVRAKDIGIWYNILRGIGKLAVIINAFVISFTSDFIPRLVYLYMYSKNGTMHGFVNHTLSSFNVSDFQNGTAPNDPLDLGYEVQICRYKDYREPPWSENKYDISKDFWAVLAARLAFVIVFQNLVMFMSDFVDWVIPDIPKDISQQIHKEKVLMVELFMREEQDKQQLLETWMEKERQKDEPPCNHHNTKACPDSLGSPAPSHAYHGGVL
Chain of CaMKIIα-Venus (P11275 whole entry): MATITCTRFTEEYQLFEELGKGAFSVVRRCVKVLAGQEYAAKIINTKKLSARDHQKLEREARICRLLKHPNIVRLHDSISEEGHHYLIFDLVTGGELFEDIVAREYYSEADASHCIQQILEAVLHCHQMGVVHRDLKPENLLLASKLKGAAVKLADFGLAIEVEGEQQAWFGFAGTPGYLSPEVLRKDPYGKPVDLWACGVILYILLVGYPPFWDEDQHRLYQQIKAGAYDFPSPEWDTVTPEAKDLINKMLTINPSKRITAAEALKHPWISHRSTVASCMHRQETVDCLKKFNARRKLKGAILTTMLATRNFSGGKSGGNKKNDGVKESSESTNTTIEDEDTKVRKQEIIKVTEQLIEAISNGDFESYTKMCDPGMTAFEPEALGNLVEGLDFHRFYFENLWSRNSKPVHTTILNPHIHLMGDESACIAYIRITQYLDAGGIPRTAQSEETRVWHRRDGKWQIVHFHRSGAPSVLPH
Chain of mAno1-FLAG(3X) (Q8BHY3 whole entry): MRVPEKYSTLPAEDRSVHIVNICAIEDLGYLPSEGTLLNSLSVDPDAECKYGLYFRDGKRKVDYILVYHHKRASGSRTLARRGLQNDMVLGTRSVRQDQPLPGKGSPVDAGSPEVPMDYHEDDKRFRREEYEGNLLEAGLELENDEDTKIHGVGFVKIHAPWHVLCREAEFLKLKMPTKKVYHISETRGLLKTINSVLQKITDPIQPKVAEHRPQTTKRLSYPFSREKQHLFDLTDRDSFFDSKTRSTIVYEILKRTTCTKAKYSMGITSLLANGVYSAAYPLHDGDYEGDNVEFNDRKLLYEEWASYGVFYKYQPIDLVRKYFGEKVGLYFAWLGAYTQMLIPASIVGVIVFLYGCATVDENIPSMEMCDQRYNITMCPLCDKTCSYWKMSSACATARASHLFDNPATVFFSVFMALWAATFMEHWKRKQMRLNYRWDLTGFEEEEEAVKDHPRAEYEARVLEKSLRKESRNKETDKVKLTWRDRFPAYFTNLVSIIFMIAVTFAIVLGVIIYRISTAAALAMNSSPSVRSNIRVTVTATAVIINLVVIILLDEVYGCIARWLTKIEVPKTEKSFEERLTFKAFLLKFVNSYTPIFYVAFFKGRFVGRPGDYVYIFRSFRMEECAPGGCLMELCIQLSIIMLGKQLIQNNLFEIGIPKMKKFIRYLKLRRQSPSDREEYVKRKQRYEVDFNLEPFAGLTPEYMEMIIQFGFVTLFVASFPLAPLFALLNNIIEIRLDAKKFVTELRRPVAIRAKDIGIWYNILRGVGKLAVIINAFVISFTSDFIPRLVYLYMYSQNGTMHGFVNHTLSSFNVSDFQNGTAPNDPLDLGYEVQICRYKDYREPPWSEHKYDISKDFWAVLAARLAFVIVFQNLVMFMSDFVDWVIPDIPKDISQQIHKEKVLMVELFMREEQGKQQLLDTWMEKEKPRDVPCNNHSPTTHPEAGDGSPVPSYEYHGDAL

fold bound with Ca2+ over without Ca2+ | percent of the protein in the lysate that bound | Substance
10 fold | 100% | CaMKIIα-Venus (from UniProt P11275 1-478) (enzyme)
2 fold | < 1% | human Ano1(ac) (natural protein)
 | < 1% | mAno1-FLAG(3X) (from UniProt Q8BHY3 1-960) (natural protein)
